Results published in US6358505 (dated 2002).

T1: human G-CSF receptor (human, UniProt Q99062 25-836)
T1 sequence (looked up): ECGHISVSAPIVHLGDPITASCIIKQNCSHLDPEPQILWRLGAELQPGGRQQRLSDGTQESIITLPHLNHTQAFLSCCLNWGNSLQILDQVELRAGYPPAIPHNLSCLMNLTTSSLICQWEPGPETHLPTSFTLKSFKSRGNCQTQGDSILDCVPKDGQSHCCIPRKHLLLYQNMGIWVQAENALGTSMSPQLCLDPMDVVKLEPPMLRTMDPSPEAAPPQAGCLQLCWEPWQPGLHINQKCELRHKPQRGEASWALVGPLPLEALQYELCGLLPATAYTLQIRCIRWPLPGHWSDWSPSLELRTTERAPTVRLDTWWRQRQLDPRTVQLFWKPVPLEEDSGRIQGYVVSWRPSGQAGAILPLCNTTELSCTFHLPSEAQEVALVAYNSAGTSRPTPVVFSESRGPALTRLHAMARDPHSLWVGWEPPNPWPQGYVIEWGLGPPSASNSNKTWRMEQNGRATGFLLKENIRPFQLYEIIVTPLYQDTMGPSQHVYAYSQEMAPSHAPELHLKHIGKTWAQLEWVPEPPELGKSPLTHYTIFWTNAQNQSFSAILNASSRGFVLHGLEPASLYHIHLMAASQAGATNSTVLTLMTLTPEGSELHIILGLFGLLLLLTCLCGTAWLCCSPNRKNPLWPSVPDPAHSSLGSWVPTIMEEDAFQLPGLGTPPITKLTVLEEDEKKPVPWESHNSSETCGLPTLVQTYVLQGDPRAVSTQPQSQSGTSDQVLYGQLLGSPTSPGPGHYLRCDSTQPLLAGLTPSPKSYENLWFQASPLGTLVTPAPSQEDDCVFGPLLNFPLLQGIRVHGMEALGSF


Molecular target: T1, human G-CSF receptor
Test: cell-based or functional assay

Molecule | EC50 (pM), Baf/3-G-CSF cell proliferation assay
G-CSF receptor agonist expressed from pMON3455 (ligand) AYKLCHPEELVLLGHSLGIPWAPLSSCPSQALQLAGCLSQLHSGLFLYQGLLQALEGISPELGPTLDTLQLDVADFATTIWQQMEELGMAPALQPTQGAMPAFASAFQRRAGGVLVASHLQSFLEVSYRVLRHLAQPSGGSGGSQSFLLKSLEQVRKIQGDGAALQEKLCAT | 102 pM
G-CSF receptor agonist expressed from pMON25183 (ligand) ATQGAMPAFASAFQRRAGGVLVASHLQSFLEVSYRVLRHLAQPTPLGPASSLPQSFLLKSLEQVRKIQGDGAALQEKLCATYKLCHPEELVLLGHSLGIPWAPLSSCPSQALQLAGCLSQLHSGLFLYQGLLQALEGISPELGPTLDTLQLDVADFATTIWQQMEELGMAPALQP | 58 pM
G-CSF receptor agonist expressed from pMON3499 (ligand) LLGHSLGIPWAPLSSCPSQALQLAGCLSQLHSGLFLYQGLLQALEGISPELGPTLDTLQLDVADFATTIWQQMEELGMAPALQPTQGAMPAFASAFQRRAGGVLVASHLQSFLEVSYRVLRHLAQPTPLGPASSLPQSFLLKSLEQVRKIQGDGAALQEKLCATYKLCHPEELV | 137 pM
G-CSF receptor agonist expressed from pMON25182 (ligand) AMAPALQPTQGAMPAFASAFQRRAGGVLVASHLQSFLEVSYRVLRHLAQPTPLGPASSLPQSFLLKSLEQVRKIQGDGAALQEKLCATYKLCHPEELVLLGHSLGIPWAPLSSCPSQALQLAGCLSQLHSGLFLYQGLLQALEGISPELGPTLDTLQLDVADFATTIWQQMEELG | 38 pM
G-CSF receptor agonist expressed from pMON25187 (ligand) ATQGAMPAFASAFQRRAGGVLVASHLQSFLEVSYRVLRHLAQPSGGSGGSQSFLLKSLEQVRKIQGDGAALQEKLCATYKLCHPEELVLLGHSLGIPWAPLSSCPSQALQLAGCLSQLHSGLFLYQGLLQALEGISPELGPTLDTLQLDVADFATTIWQQMEELGMAPALQP | 83 pM

The next lines start with the values.

EC50 (pM), Baf/3-G-CSF cell proliferation assay | Molecule
60 pM | native G-CSF (from UniProt P09919 31-204) (ligand)
92 pM | G-CSF receptor agonist expressed from pMON25186 (ligand) AMAPALQPTQGAMPAFASAFQRRAGGVLVASHLQSFLEVSYRVLRHLAQPSGGSGGSQSFLLKSLEQVRKIQGDGAALQEKATYKLCHPEELVLLGHSLGIPWAPLSSCPSQALQLAGCLSQLHSGLFLYQGLLQALEGISPELGPTLDTLQLDVADFATTIWQQMEELG
70 pM | G-CSF receptor agonist expressed from pMON25184 (ligand) ASAFQRRAGGVLVASHLQSFLEVSYRVLRHLAQPTPLGPASSLPQSFLLKSLEQVRKIQGDGAALQEKLCATYKLCHPEELVLLGHSLGIPWAPLSSCPSQALQLAGCLSQLHSGLFLYQGLLQALEGISPELGPTLDTLQLDVADFATTIWQQMEELGMAPALQPTQGAMPAFA
121 pM | G-CSF receptor agonist expressed from pMON3450 (ligand) AYKLCHPEELVLLGHSLGIPWAPLSSCPSQALQLAGCLSQLHSGLFLYQGLLQALEGISPELGPTLDTLQLDVADFATTIWQQMEELGMAPALQPTQGAMPAFASAFQRRAGGVLVASHLQSFLEVSYRVLRHLAQPTPLGPASSLPQSFLLKSLEQVRKIQGDGAALQEKLCAT
41 pM | G-CSF receptor agonist expressed from pMON25188 (ligand) ASAFQRRAGGVLVASHLQSFLEVSYRVLRHLAQPSGGSGGSQSFLLKSLEQVRKIQGDGAALQEKLCATYKLCHPEELVLLGHSLGIPWAPLSSCPSQALQLAGCLSQLHSGLFLYQGLLQALEGISPELGPTLDTLQLDVADFATTIWQQMEELGMAPALQPTQGAMPAFA
